This is an account of results in patent US20260167721A1 (ABLEXIS, published 2026).

The target of test [1] is T1, human CD3 (TCR/CD3 complex on the cell surface) (human, UniProt P07766 23-207; P04234 22-171; P09693 23-182).
T1 construct: whole, on cells; Native CD3 on human Pan-T cells or Jurkat wild-type cells; also called CD3 on Pan-T cells; CD3 on Jurkat WT cells
Put plainly: flow cytometry, Jurkat WT gMFI over Jurkat KO gMFI, 10 ug/mL. (In general: Flow cytometry measures light scatter and fluorescence of single cells or particles in a stream.)

Test [2] has as its target T1, human CD3 (TCR/CD3 complex on the cell …). Put plainly: flow cytometry, Jurkat WT gMFI over Jurkat KO gMFI, 1 ug/mL.
Test [3] shares this target. Put plainly: flow cytometry, Pan-T cells, 10 ug/mL.
Test [4] has the same target. Put plainly: flow cytometry, Jurkat WT cells, 1 ug/mL.
Test [5] shares this target. Put plainly: flow cytometry, Pan-T cells, 1 ug/mL.
The target is the same in test [6]. The experiment in a line: flow cytometry, Jurkat WT cells, 10 ug/mL.

T1 sequence (P07766 23-207, chain 1 of 3): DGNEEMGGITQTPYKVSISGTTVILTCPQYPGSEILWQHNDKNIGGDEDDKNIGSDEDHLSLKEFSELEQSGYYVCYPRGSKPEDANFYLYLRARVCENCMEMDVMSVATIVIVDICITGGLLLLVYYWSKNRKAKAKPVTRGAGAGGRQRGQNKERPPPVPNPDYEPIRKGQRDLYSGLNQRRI
T1 sequence (P04234 22-171, chain 2 of 3): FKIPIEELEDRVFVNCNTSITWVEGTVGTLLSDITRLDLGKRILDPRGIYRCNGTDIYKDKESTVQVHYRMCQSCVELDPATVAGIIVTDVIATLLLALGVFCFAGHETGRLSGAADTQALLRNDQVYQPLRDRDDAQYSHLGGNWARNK
T1 sequence (P09693 23-182, chain 3 of 3): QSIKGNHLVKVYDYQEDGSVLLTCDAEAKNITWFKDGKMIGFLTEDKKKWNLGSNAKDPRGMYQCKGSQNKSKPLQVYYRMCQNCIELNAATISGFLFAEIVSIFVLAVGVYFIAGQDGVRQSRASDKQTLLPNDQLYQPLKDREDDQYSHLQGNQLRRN

B1: CD3 × CD33-BspAb82 (bispecific antibody)
chain 1: EVQLVESGGGLVKPGGSLRLSCAASGLTFSTYSMNWVRQAPGKCLEWVSSISSSGSYVYYADSVKGRFTMSRDNAKNSLYLQMNSLRAEDTAVYYCARERRELLFDYWGQGTLVTVSSGGGGSGGGGSGGGGSGGGGSNFMLTQPHSVSESPGKTVTISCTRSSGSIASNYVQWYQQRPGSSPTSVIYEDNQRPSGVPDRFSGSIDSSSNSASLTISGLKTEDEADYYCQSYDRSNRVFGCGTKLTVLDKTHTCPPCPAPEFEGGPSVFLFPPKPKDTLMISRTPEVTCVVVDVSHEDPEVKFNWYVDGVEVHNAKTKPREEQYNSTYRVVSVLTVLHQDWLNGKEYKCKVSNKALPASIEKTISKAKGQPREPQVYTLPPCREEMTKNQVSLWCLVKGFYPSDIAVEWESNGQPENNYKTTPPVLDSDGSFFLYSKLTVDKSRWQQGNVFSCSVMHEALHNHYTQKSLSLSPGK
chain 2: EVQLVQSGAEVKKPGSSVKVSCKASGYTITDSNIHWVRQAPGQSLEWIGYIYPYNGGTDYNQKFKNRATLTVDNPTNTAYMELSSLRSEDTAFYYCVNGNPWLAYWGQGTLVTVSSASTKGPSVFPLAPSSKSTSGGTAALGCLVKDYFPEPVTVSWNSGALTSGVHTFPAVLQSSGLYSLSSVVTVPSSSLGTQTYICNVNHKPSNTKVDKRVEPKSCDKTHTCPPCPAPEFEGGPSVFLFPPKPKDTLMISRTPEVTCVVVDVSHEDPEVKFNWYVDGVEVHNAKTKPREEQYNSTYRVVSVLTVLHQDWLNGKEYKCKVSNKALPASIEKTISKAKGQPREPQVCTLPPSREEMTKNQVSLSCAVKGFYPSDIAVEWESNGQPENNYKTTPPVLDSDGSFFLVSKLTVDKSRWQQGNVFSCSVMHEALHNRFTQKSLSLSPGK
chain 3: DIQLTQSPSTLSASVGDRVTITCRASESLDNYGIRFLTWFQQKPGKAPKLLMYAASNQGSGVPSRFSGSGSGTEFTLTISSLQPDDFATYYCQQTKEVPWSFGQGTKVEVKRTVAAPSVFIFPPSDEQLKSGTASVVCLLNNFYPREAKVQWKVDNALQSGNSQESVTEQDSKDSTYSLSSTLTLSKADYEKHKVYACEVTHQGLSSPVTKSFNRGEC
As for B1, the “Jurkat WT/KO (Fold)” value is 14.4 fold in test [1] and 12.9 fold in test [2]. The “% Positive” value in test [3] came out at 99.9%; in test [5], 99.5%. The gMFI in test [3] was found to be 462000 gMFI; in test [4], 54500 gMFI; in test [5], 319000 gMFI; in test [6], 58600 gMFI.

B2: CD3 × CD33-BspAb83 (bispecific antibody)
chain 1: EVQLVESGGGLVKPGGSLRLSCVASGFTFSRYSMNWVRQAPGKCLEWVSSISSSSRYTYYADSLKGRFIMSRDNAKNSLFLQMNSLRAEDTAVYYCARNLYNALDYWGQGTLVTVSSGGGGSGGGGSGGGGSGGGGSFMLTQPHSVSESPGKTVTISCTRSSGSIASNYVQWYQQRPGSSPTTVIYEDNQRPSGVPDRFSGSIDSSSNSASLTISGLQTEDEADYYCQSYDSSNRVFGCGTKLTVLDKTHTCPPCPAPEFEGGPSVFLFPPKPKDTLMISRTPEVTCVVVDVSHEDPEVKFNWYVDGVEVHNAKTKPREEQYNSTYRVVSVLTVLHQDWLNGKEYKCKVSNKALPASIEKTISKAKGQPREPQVYTLPPCREEMTKNQVSLWCLVKGFYPSDIAVEWESNGQPENNYKTTPPVLDSDGSFFLYSKLTVDKSRWQQGNVFSCSVMHEALHNHYTQKSLSLSPGK
chain 2: EVQLVQSGAEVKKPGSSVKVSCKASGYTITDSNIHWVRQAPGQSLEWIGYIYPYNGGTDYNQKFKNRATLTVDNPTNTAYMELSSLRSEDTAFYYCVNGNPWLAYWGQGTLVTVSSASTKGPSVFPLAPSSKSTSGGTAALGCLVKDYFPEPVTVSWNSGALTSGVHTFPAVLQSSGLYSLSSVVTVPSSSLGTQTYICNVNHKPSNTKVDKRVEPKSCDKTHTCPPCPAPEFEGGPSVFLFPPKPKDTLMISRTPEVTCVVVDVSHEDPEVKFNWYVDGVEVHNAKTKPREEQYNSTYRVVSVLTVLHQDWLNGKEYKCKVSNKALPASIEKTISKAKGQPREPQVCTLPPSREEMTKNQVSLSCAVKGFYPSDIAVEWESNGQPENNYKTTPPVLDSDGSFFLVSKLTVDKSRWQQGNVFSCSVMHEALHNRFTQKSLSLSPGK
chain 3: DIQLTQSPSTLSASVGDRVTITCRASESLDNYGIRFLTWFQQKPGKAPKLLMYAASNQGSGVPSRFSGSGSGTEFTLTISSLQPDDFATYYCQQTKEVPWSFGQGTKVEVKRTVAAPSVFIFPPSDEQLKSGTASVVCLLNNFYPREAKVQWKVDNALQSGNSQESVTEQDSKDSTYSLSSTLTLSKADYEKHKVYACEVTHQGLSSPVTKSFNRGEC
On to B2, for which the results for the “Jurkat WT/KO (Fold)” value in test [1] and in test [2] were 14.3 fold and 14 fold, respectively. Besides, the “% Positive” value in test [3] and in test [5] was 99.8% throughout. The gMFI in test [3] amounted to 598000 gMFI; in test [4], 67700 gMFI; in test [5] it was 566000 gMFI; in test [6], 69100 gMFI.

B3: CD3 × CD33-BspAb85 (bispecific antibody)
scFv-Fc: EVQLVESGGGLVKPGGSLRLSCAASGFTFSSYSMNWVRQAPGKCLEWVSSISRSSGYIFYADSVKGRFTISRDNAKNSLYLQMNSLRAEDTAVYYCVRERVGAGFDYWGQGTLVTVSSGGGGSGGGGSGGGGSGGGGSNFMLTQPHSVSESPGKTVAISCTRSSGSIASNYVQWYQQRPGSSPTAVIYEDNQRPSGVPDRFSGSIDSSSNSAFLTISGLKTEDEADYYCQSYDSSNRVFGCGTKLTVLGGGGSDKTHTCPPCPAPEFEGGPSVFLFPPKPKDTLMISRTPEVTCVVVDVSHEDPEVKFNWYVDGVEVHNAKTKPREEQYNSTYRVVSVLTVLHQDWLNGKEYKCKVSNKALPASIEKTISKAKGQPREPQVYTLPPCREEMTKNQVSLWCLVKGFYPSDIAVEWESNGQPENNYKTTPPVLDSDGSFFLYSKLTVDKSRWQQGNVFSCSVMHEALHNHYTQKSLSLSPGK
heavy: EVQLVQSGAEVKKPGSSVKVSCKASGYTITDSNIHWVRQAPGQSLEWIGYIYPYNGGTDYNQKFKNRATLTVDNPTNTAYMELSSLRSEDTAFYYCVNGNPWLAYWGQGTLVTVSSASTKGPSVFPLAPSSKSTSGGTAALGCLVKDYFPEPVTVSWNSGALTSGVHTFPAVLQSSGLYSLSSVVTVPSSSLGTQTYICNVNHKPSNTKVDKRVEPKSCDKTHTCPPCPAPEFEGGPSVFLFPPKPKDTLMISRTPEVTCVVVDVSHEDPEVKFNWYVDGVEVHNAKTKPREEQYNSTYRVVSVLTVLHQDWLNGKEYKCKVSNKALPASIEKTISKAKGQPREPQVCTLPPSREEMTKNQVSLSCAVKGFYPSDIAVEWESNGQPENNYKTTPPVLDSDGSFFLVSKLTVDKSRWQQGNVFSCSVMHEALHNRFTQKSLSLSPGK
light: DIQLTQSPSTLSASVGDRVTITCRASESLDNYGIRFLTWFQQKPGKAPKLLMYAASNQGSGVPSRFSGSGSGTEFTLTISSLQPDDFATYYCQQTKEVPWSFGQGTKVEVKRTVAAPSVFIFPPSDEQLKSGTASVVCLLNNFYPREAKVQWKVDNALQSGNSQESVTEQDSKDSTYSLSSTLTLSKADYEKHKVYACEVTHQGLSSPVTKSFNRGEC
notes: KiH heterodimer
As for B3, the “Jurkat WT/KO (Fold)” value worked out at 9.9 fold in test [1] and 6.2 fold in test [2]. Also, the “% Positive” value in test [3] turned out to be 99.7%; in test [5] it was 99.4%. In addition, the gMFI in test [3] was found to be 249000 gMFI; in test [4] it was 18900 gMFI; in test [5], 96000 gMFI; in test [6], 32000 gMFI.

B4: CD3 × CD33-BspAb84 (bispecific antibody)
scFv-Fc: EVQVAESGGGLVKPGGSLRLSCAASGFTFSRYSMNWVRQAPGKCLEWVSSISSSGSYTYYADSVKGRFTISRDNAKNSLYLQMNSLRAEDTAVYYCVRERGKGAGMDVWGQGTTVTVSSGGGGSGGGGSGGGGSGGGGSNFMLTQPHSVSESPGKTVTISCTRSSGSIASNYVQWYQQRPGSSPTTVIYEDNQRPSGVPDRFSGSIDSSSNSASLTISGLKTEDEADYYCQSYDSSNRVFGCGTKLTVLGGGGSDKTHTCPPCPAPEFEGGPSVFLFPPKPKDTLMISRTPEVTCVVVDVSHEDPEVKFNWYVDGVEVHNAKTKPREEQYNSTYRVVSVLTVLHQDWLNGKEYKCKVSNKALPASIEKTISKAKGQPREPQVYTLPPCREEMTKNQVSLWCLVKGFYPSDIAVEWESNGQPENNYKTTPPVLDSDGSFFLYSKLTVDKSRWQQGNVFSCSVMHEALHNHYTQKSLSLSPGK
heavy: EVQLVQSGAEVKKPGSSVKVSCKASGYTITDSNIHWVRQAPGQSLEWIGYIYPYNGGTDYNQKFKNRATLTVDNPTNTAYMELSSLRSEDTAFYYCVNGNPWLAYWGQGTLVTVSSASTKGPSVFPLAPSSKSTSGGTAALGCLVKDYFPEPVTVSWNSGALTSGVHTFPAVLQSSGLYSLSSVVTVPSSSLGTQTYICNVNHKPSNTKVDKRVEPKSCDKTHTCPPCPAPEFEGGPSVFLFPPKPKDTLMISRTPEVTCVVVDVSHEDPEVKFNWYVDGVEVHNAKTKPREEQYNSTYRVVSVLTVLHQDWLNGKEYKCKVSNKALPASIEKTISKAKGQPREPQVCTLPPSREEMTKNQVSLSCAVKGFYPSDIAVEWESNGQPENNYKTTPPVLDSDGSFFLVSKLTVDKSRWQQGNVFSCSVMHEALHNRFTQKSLSLSPGK
light: DIQLTQSPSTLSASVGDRVTITCRASESLDNYGIRFLTWFQQKPGKAPKLLMYAASNQGSGVPSRFSGSGSGTEFTLTISSLQPDDFATYYCQQTKEVPWSFGQGTKVEVKRTVAAPSVFIFPPSDEQLKSGTASVVCLLNNFYPREAKVQWKVDNALQSGNSQESVTEQDSKDSTYSLSSTLTLSKADYEKHKVYACEVTHQGLSSPVTKSFNRGEC
notes: KiH heterodimer
In the case of B4, the “Jurkat WT/KO (Fold)” value in test [1] was found to be 13.9 fold; in test [2], 10.8 fold. Moreover, the “% Positive” value in test [3] and in test [5] was 99.9% each time. Further, the gMFI in test [3] came to 362000 gMFI; in test [4], 35200 gMFI; in test [5] it was 173000 gMFI; in test [6], 51000 gMFI.
